Results as given in patent publication US20180162952A1 (AbbVie / Abbott, published 2018).
Values belong to the binder of their own block, whether it stands above or below them.

Columns and labels:
[1] = molecular target: T1, human PTK7, full length, expressed on transduced cells (human, UniProt Q13308 31-1070); test: cell-based or functional assay
T1 sequence: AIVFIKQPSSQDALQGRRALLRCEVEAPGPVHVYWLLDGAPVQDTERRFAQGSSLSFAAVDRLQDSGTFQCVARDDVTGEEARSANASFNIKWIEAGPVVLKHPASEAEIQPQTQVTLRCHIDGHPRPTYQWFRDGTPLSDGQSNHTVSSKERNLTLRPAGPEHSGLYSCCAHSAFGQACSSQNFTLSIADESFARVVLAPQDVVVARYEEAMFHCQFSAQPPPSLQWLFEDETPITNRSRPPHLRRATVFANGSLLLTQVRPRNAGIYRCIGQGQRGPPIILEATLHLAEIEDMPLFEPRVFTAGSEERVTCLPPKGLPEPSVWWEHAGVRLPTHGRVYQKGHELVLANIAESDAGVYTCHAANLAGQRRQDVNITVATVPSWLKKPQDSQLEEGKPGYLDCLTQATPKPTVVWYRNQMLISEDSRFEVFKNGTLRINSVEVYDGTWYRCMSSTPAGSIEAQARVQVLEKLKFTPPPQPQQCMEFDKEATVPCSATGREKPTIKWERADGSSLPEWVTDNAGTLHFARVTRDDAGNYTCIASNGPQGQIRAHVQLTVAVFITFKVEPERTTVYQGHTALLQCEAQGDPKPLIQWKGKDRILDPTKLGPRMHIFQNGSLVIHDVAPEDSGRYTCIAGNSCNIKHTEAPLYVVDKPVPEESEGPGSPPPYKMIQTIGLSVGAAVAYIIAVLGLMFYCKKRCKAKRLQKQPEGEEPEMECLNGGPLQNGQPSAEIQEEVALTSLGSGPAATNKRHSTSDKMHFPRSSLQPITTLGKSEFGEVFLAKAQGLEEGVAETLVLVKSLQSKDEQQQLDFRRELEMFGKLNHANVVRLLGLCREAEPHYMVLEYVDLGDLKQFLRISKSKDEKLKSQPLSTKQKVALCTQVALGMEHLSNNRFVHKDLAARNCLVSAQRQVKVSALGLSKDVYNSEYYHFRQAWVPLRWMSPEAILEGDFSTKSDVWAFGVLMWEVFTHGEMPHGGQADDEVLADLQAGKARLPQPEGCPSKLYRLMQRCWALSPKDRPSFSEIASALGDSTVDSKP

[2] = molecular target: T2, PTK7 ECD Ig domains 1-4 Fc fusion (human); test: ELISA, Ig-domain Fc fusion captured by anti-human IgG Fc
T2 chain: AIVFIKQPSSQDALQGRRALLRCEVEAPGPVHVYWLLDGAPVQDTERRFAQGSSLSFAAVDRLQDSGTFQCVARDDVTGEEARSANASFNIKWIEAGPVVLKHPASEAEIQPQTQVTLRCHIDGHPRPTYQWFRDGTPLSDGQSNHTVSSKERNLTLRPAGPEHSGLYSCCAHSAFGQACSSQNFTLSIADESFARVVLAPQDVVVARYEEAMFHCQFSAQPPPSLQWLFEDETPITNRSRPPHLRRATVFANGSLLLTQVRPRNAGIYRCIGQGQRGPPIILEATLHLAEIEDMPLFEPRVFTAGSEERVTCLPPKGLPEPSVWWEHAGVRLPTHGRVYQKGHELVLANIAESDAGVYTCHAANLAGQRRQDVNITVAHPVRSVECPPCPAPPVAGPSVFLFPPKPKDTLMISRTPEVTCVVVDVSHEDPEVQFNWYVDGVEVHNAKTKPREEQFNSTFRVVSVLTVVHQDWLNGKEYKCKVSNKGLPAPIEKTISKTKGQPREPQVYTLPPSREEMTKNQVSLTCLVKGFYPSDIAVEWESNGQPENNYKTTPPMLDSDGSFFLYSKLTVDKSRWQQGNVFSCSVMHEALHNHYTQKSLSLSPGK
Procedure: (§1) Using these constructs several modulators were tested for their ability to recognize PTK7 proteins with deletions of defined Ig domains. Through an ELISA assay comprising the use of domain deleted constructs and run under standard conditions. In this regard PTK7 Ig domain Fc fusions were captured on ELISA plate coated with goat anti-human IgG Fc-specific (Jackson Immunoresearch) antibody. The ability of each murine anti-PTK7 antibody to bind the various deletion Fc fusion proteins was then detected with HRP-labeled goat anti-mouse Fc-specific antibody.

[3] = molecular target: T3, PTK7 ECD Ig domains 6-7 Fc fusion (human); test: as above
T3 chain: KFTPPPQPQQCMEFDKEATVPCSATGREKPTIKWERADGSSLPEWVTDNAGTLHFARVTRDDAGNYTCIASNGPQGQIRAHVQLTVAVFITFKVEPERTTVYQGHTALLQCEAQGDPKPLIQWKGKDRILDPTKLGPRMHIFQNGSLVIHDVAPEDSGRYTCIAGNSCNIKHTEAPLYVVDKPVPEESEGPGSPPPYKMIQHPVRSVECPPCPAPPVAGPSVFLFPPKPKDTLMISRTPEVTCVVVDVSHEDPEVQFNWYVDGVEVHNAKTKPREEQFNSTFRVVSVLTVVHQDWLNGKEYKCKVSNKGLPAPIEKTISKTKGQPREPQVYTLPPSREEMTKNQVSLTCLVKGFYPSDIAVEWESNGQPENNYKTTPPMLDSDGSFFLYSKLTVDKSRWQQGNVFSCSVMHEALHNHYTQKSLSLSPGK
Procedure: as §1

[4] = molecular target: T4, PTK7 ECD Ig domains 1-5 Fc fusion (human); test: as above
T4 chain: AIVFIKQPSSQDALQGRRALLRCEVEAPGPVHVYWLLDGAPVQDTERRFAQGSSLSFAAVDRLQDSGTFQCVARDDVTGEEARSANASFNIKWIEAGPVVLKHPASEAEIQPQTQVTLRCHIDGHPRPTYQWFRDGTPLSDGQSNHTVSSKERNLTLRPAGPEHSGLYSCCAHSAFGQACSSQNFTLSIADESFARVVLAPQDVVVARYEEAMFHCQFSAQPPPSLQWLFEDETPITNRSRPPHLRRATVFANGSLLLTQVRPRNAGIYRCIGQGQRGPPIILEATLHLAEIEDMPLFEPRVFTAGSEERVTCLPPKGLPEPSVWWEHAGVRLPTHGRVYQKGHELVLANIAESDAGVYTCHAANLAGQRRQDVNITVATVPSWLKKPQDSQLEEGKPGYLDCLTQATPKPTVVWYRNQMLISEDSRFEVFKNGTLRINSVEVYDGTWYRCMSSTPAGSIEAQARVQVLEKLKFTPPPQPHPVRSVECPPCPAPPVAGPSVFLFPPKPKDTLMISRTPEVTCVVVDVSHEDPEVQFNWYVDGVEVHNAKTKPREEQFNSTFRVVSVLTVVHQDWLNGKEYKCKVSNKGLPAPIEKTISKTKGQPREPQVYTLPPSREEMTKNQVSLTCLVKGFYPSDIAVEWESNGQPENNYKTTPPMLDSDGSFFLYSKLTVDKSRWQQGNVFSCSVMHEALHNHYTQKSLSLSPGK
Procedure: as §1

binding result [2]: binds
binding result [3]: no binding
binding result [4]: binds
B1: SC6.10.2 (antibody, V domains shown)
VH: QVQLQQSGAELVRPGVSVKISCKGSGYRFTDYPIHWVKQSHAKSLEWIGIISTYYGDVTNNPKFRGKATMTVDKSSTTAYMELARLTSEDSAIYYCARNDLFAYWGQGTLVTVSA
VL: DIVMTQSQKFMSTSVGDRVNVTCKASQNVGTNVVWYQQKTGQSPKALIHSASYRYSGVPDRFTGSGSGTDFTLTLSNVQSEDLAEYFCQHYNSFPYTFGGGTKLEIKR
notes: Murine monoclonal antibody from a hybridoma; also called H10.2; H10
EC50, saporin (Fab-ZAP) cell killing, 293.PTK7 Cells [1]: 1.1 pM

binding result [2]: binds
binding result [3]: no binding
binding result [4]: binds
B2: SC6.2.35 (antibody, V domains shown)
VH: QVQMQQSGAELMKPGASVKLSCKATGYTFTGYWIEWVKQRPGHGLEWIGEILPGSGRSNSNEKFKGKATFTADTSSNTAYMQLSSLTTEDSAIYYCARGKLSWGQGTLVTVSA
VL: DIVLTQSPASLAVSLGQRATISCRASESVDSFGNSFMHWYQQKPGQPPKLLIYAASNLGSGVPARFSGSGSGTDFSLNIHPVEEDDSAMYFCQQSKEVPRTFGGGSRLEIKR
notes: Murine monoclonal antibody from a hybridoma; also called H2.35; SC6.H2
EC50, saporin (Fab-ZAP) cell killing, 293.PTK7 Cells [1]: 0.65 pM
